Assay [1] concerns the target myosin X anti-parallel coiled-coil (Homo sapiens) (UniProt Q9HD67). Particulars: cited from earlier work.
Assay [2] has as its target Actin purified from rabbit skeletal muscle (F-actin filaments) (rabbit) (UniProt P68135). As to the kind of experiment: transient kinetics, quenching of pyrene-actin fluorescence; myosin rapidly mixed with MgATP, then with pyrene-labelled actin (0-50 uM; single filaments or fascin bundles) with high MgADP to stop further cycling.
Assay [3] addresses Fascin-bundled F-actin filaments (rabbit | not stated) (UniProt P68135). Described as above.

As for “myosin X anti-parallel coiled-coil (from UniProt Q9HD67)”, the equilibrium dissociation constant (Kd) in assay [1] was 600 nM.

For “MyoX-HMM-A938 (truncated human Myo10 HMM, amino acids 1-938, 19 amino-acid linker, Leucine zipper, AVI tag, Flag tag) (from UniProt Q9HD67 1-938; P0DP23 1-149) (complex)”, the rate of pyrene-actin fluorescence quenching in assay [2] was 19 s⁻¹; in assay [3] it was 34 s⁻¹.

On to “Human myosin X MD-3IQ-SAH (S1, truncated at Gln 851) (from UniProt Q9HD67 1-851; P0DP23 1-149) (complex)”, for which the rate of pyrene-actin fluorescence quenching in assay [2] stood at 18 s⁻¹; in assay [3], 17 s⁻¹.

The term Kd denotes the concentration at which binding is half-saturated.

The values above are taken from publication PMC5025751.
